# Results reported in the supplement of paper PMC10567573.
# B1: ETS2 (parent)
# chain: TSGKRYVYRFVCDLQNLLGFTPEE
# Variants of: B1
# Assay: protein stability index of a GFP-peptide fusion (GPS, HEK-293T) (PSI 1-6); higher = more stable
# Conditions: c terminus: a fixed tail appended
# 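Further: lentivirally expressed fusions sorted by FACS into six bins by GFP to DsRed ratio, PSI derived from sequencing read proportions per bin multiplied by bin number.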
row,Variant,protein stability index
1,TVGKRYVYRFVCDLQNLLGFTPEE [S2V],1.83
2,TKGKRYVYRFVCDLQNLLGFTPEE [S2K],2.29
3,TNGKRYVYRFVCDLQNLLGFTPEE [S2N],3.49
4,TCGKRYVYRFVCDLQNLLGFTPEE [S2C],1.64
5,TPGKRYVYRFVCDLQNLLGFTPEE [S2P],2.25
6,TSGKRYVYRFVCDLQNLLGFLPEE [T21L],2.1
7,TSGKRYVYRFVCDLQNLLGFAPEE [T21A],2.11
8,TSGKRYVYRFVCDLQNLLGFYPEE [T21Y],1.77
9,TSGKRYVYRFVCDLQNLLGFWPEE [T21W],2.15
10,TSGKRYVYRFVCDLQNLLGFCPEE [T21C],1.32
11,TSGKRYVYRFVCDLQNLWGFTPEE [L18W],2.1
12,TSGKRYVYRFVCDLQNLRGFTPEE [L18R],2.09
13,TSGKRYVYRFVCDLQNLSGFTPEE [L18S],1.87
14,TSGKRYVYRFVCDLQNLQGFTPEE [L18Q],2.88
15,TSGKRYVYRFVCDLQNLKGFTPEE [L18K],1.95
16,TSGKRYVYRFVCDLQNLAGFTPEE [L18A],1.99
17,TSGKRYVYRFVHDLQNLLGFTPEE [C12H],2.31
18,TSGKRYVYRFVTDLQNLLGFTPEE [C12T],2.17
19,TSGKRYVYRFVIDLQNLLGFTPEE [C12I],1.96
20,TSGKRYVYRFVPDLQNLLGFTPEE [C12P],2.05
21,TSGKRYVYRFVFDLQNLLGFTPEE [C12F],1.68
22,TSGKRYVYRFVVDLQNLLGFTPEE [C12V],2.39
23,TSGKRYVYRFVRDLQNLLGFTPEE [C12R],2.58
24,TSGKRYVYRFVADLQNLLGFTPEE [C12A],1.92

row,Variant,protein stability index
1,TSGKRYVYRFVLDLQNLLGFTPEE [C12L],2.03
2,TSGKRYVYRFVQDLQNLLGFTPEE [C12Q],2.57
3,TSGKRYVYRFVYDLQNLLGFTPEE [C12Y],1.77
4,TSGKRLVYRFVCDLQNLLGFTPEE [Y6L],3.25
5,TSGKRVVYRFVCDLQNLLGFTPEE [Y6V],2.61
6,TSGKRTVYRFVCDLQNLLGFTPEE [Y6T],2.3
7,TSGKRRVYRFVCDLQNLLGFTPEE [Y6R],2.31
8,TSGKREVYRFVCDLQNLLGFTPEE [Y6E],1.4
9,TSGKRSVYRFVCDLQNLLGFTPEE [Y6S],2.26
10,TSGKRPVYRFVCDLQNLLGFTPEE [Y6P],2.59
11,TSGKKYVYRFVCDLQNLLGFTPEE [R5K],3.18
12,TSGKPYVYRFVCDLQNLLGFTPEE [R5P],1.52
13,TSGKFYVYRFVCDLQNLLGFTPEE [R5F],3.19
14,TSGKNYVYRFVCDLQNLLGFTPEE [R5N],3.24
15,TSGKDYVYRFVCDLQNLLGFTPEE [R5D],2.05
16,TSGKGYVYRFVCDLQNLLGFTPEE [R5G],3.53
17,TSGKSYVYRFVCDLQNLLGFTPEE [R5S],2.87
18,TSGKYYVYRFVCDLQNLLGFTPEE [R5Y],2.88
19,TSGKAYVYRFVCDLQNLLGFTPEE [R5A],2.44
20,SSGKRYVYRFVCDLQNLLGFTPEE [T1S],2.4
21,YSGKRYVYRFVCDLQNLLGFTPEE [T1Y],1.71
22,NSGKRYVYRFVCDLQNLLGFTPEE [T1N],1.82
23,ESGKRYVYRFVCDLQNLLGFTPEE [T1E],2.38
24,WSGKRYVYRFVCDLQNLLGFTPEE [T1W],2.1

row,Variant,protein stability index
1,RSGKRYVYRFVCDLQNLLGFTPEE [T1R],2.29
2,MSGKRYVYRFVCDLQNLLGFTPEE [T1M],1.86
3,TSGKRYVYRFVCDLQTLLGFTPEE [N16T],1.97
4,TSGKRYVYRFVCDLQHLLGFTPEE [N16H],2.49
5,TSGKRYVYRFVCDLQELLGFTPEE [N16E],1.74
6,TSGKRYVYRFVCDLQILLGFTPEE [N16I],2.03
7,TSGKRYVYRFVCDLQSLLGFTPEE [N16S],2.46
8,TSGKRYVYRFVCDLQCLLGFTPEE [N16C],1.7
9,TSGKRYVYRFVCDLQMLLGFTPEE [N16M],1.53
10,TSGKRYVYRFVCDLDNLLGFTPEE [Q15D],1.61
11,TSGKRYVYRFVCDLRNLLGFTPEE [Q15R],3
12,TSGKRYVYRFVCDLPNLLGFTPEE [Q15P],2.7
13,TSGKRYVYRFVCDLHNLLGFTPEE [Q15H],1.96
14,TSGKRYVYRFVCDLNNLLGFTPEE [Q15N],2.13
15,TSGKRYVYRFVCDLWNLLGFTPEE [Q15W],1.88
16,TSGKRYVYRFVCDHQNLLGFTPEE [L14H],2.34
17,TSGKRYVYRFVCDQQNLLGFTPEE [L14Q],2.81
18,TSGKRYVYRFVCDTQNLLGFTPEE [L14T],2.69
19,TSGKRYVYRFVCDRQNLLGFTPEE [L14R],2.35
20,TSGKRYVYRFVCDGQNLLGFTPEE [L14G],2.34
21,TSGKRYVYRFVCDNQNLLGFTPEE [L14N],2.23
22,TSGKRYVYRFVCDPQNLLGFTPEE [L14P],3.53
23,TSGKRYVYRFVCDAQNLLGFTPEE [L14A],3.91
24,TSGKRYVYRFVCDMQNLLGFTPEE [L14M],2.14

row,Variant,protein stability index
1,TSGKRYVYRFVCDEQNLLGFTPEE [L14E],3.19
2,TSGKRYVYRFVCDFQNLLGFTPEE [L14F],2.08
3,TSGKRYVYRFVCDLQNYLGFTPEE [L17Y],2.37
4,TSGKRYVYRFVCDLQNALGFTPEE [L17A],2.08
5,TSGKRYVYRFVCDLQNPLGFTPEE [L17P],3.57
6,TSGKRYVYRFVCDLQNMLGFTPEE [L17M],1.47
7,TSGKRYVYRFVCDLQNWLGFTPEE [L17W],2.21
8,TSGKRYVYRFVCDLQNCLGFTPEE [L17C],2.57
9,TSGKRYVYRFVCDLQNGLGFTPEE [L17G],2.31
10,TSGKRYVYRFVCDLQNKLGFTPEE [L17K],2.43
11,TSGKRYVYRFVCDLQNHLGFTPEE [L17H],2.61
12,TSMKRYVYRFVCDLQNLLGFTPEE [G3M],2.08
13,TSEKRYVYRFVCDLQNLLGFTPEE [G3E],1.78
14,TSSKRYVYRFVCDLQNLLGFTPEE [G3S],2.36
15,TSPKRYVYRFVCDLQNLLGFTPEE [G3P],1.5
16,TSIKRYVYRFVCDLQNLLGFTPEE [G3I],2.11
17,TSYKRYVYRFVCDLQNLLGFTPEE [G3Y],2.09
18,TSWKRYVYRFVCDLQNLLGFTPEE [G3W],1.65
19,TSKKRYVYRFVCDLQNLLGFTPEE [G3K],1.7
20,TSGCRYVYRFVCDLQNLLGFTPEE [K4C],2.58
21,TSGDRYVYRFVCDLQNLLGFTPEE [K4D],2.24
22,TSGARYVYRFVCDLQNLLGFTPEE [K4A],2.29
